The values below come from patent US20070122429A1, “Designed antigens to elicit neutralizing antibodies against sterically restricted antigen and method of using same” (priority 2005, published 2007).

In experiment [1] the target is HIV-1 HXB2 Env (gp41 N-trimer region) (HIV-1 HXB2) (UniProt P04578). Nature of the experiment: cell-based or functional assay.
Experiment [2] addresses HIV-1 JRFL Env (gp41 N-trimer region) (HIV-1 JRFL). Nature of the experiment: cell-based or functional assay.

For the substance BPTI-H6 (from UniProt P00974 36-93), the no inhibition of cell-cell fusion or viral infectivity (HXB2 Env) up to the stated concentration in experiment [1] was more than 1 µM. Further, the no inhibition of viral infectivity (JRFL Env) up to the stated concentration in experiment [2] is more than 1 µM.

“Ub-C37 (from UniProt P0CG48 1-76; P04578 625-661)” yielded an IC50, viral infectivity HXB2 in experiment [1] of 6.8 nM. Further, the IC50, viral infectivity JRFL in experiment [2] was found to be 37.7 nM.

Regarding GFP-H6, in experiment [1], the no inhibition of cell-cell fusion or viral infectivity (HXB2 Env) up to the stated concentration is more than 1 µM. In addition, the no inhibition of viral infectivity (JRFL Env) up to the stated concentration in experiment [2] is more than 1 µM.

MBP-H6 (from UniProt P0AEX9 27-392): in experiment [1], the no inhibition of cell-cell fusion or viral infectivity (HXB2 Env) up to the stated concentration is more than 1 µM. Also, in experiment [2], the no inhibition of viral infectivity (JRFL Env) up to the stated concentration is more than 10 µM.
